Reference: patent US20160317656A1 (published 2016)

T1: IIIb
T1 chain: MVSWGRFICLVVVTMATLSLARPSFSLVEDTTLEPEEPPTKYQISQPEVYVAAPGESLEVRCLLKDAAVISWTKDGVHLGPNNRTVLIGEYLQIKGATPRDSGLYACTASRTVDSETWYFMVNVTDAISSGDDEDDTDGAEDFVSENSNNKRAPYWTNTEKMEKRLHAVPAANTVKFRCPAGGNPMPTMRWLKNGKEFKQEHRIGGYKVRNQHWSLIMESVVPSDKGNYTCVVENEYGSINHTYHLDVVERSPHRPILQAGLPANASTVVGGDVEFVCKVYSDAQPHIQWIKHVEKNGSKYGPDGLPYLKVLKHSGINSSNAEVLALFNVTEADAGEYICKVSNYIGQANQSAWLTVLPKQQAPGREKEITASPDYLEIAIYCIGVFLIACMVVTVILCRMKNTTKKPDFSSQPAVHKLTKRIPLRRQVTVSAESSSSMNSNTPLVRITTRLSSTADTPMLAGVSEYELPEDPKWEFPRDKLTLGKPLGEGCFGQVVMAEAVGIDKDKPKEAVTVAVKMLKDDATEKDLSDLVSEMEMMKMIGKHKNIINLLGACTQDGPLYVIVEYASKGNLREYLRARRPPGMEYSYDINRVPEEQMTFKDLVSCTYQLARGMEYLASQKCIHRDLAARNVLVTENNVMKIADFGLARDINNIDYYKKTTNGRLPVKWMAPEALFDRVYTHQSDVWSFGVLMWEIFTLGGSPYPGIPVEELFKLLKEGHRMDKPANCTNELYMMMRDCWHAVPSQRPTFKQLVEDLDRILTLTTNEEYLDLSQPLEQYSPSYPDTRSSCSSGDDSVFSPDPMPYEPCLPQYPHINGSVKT


What was measured:
IIIb = target: T1, IIIb; test: Biacore; rhFGFR2 alpha (IIIb) Fc chimera
[1] = target: human FGFR2 IIIc variant protein (isoform 1: NP_000132), expressed on transfected cells (UniProt P21802 22-821); test: Biacore
IIIc = test: Biacore; rhFGFR2 alpha (IIIc) Fc chimera

human FGFR2 IIIc variant protein (isoform 1: NP_000132), expressed on transfected cells, sequence (P21802 22-821, change not shown): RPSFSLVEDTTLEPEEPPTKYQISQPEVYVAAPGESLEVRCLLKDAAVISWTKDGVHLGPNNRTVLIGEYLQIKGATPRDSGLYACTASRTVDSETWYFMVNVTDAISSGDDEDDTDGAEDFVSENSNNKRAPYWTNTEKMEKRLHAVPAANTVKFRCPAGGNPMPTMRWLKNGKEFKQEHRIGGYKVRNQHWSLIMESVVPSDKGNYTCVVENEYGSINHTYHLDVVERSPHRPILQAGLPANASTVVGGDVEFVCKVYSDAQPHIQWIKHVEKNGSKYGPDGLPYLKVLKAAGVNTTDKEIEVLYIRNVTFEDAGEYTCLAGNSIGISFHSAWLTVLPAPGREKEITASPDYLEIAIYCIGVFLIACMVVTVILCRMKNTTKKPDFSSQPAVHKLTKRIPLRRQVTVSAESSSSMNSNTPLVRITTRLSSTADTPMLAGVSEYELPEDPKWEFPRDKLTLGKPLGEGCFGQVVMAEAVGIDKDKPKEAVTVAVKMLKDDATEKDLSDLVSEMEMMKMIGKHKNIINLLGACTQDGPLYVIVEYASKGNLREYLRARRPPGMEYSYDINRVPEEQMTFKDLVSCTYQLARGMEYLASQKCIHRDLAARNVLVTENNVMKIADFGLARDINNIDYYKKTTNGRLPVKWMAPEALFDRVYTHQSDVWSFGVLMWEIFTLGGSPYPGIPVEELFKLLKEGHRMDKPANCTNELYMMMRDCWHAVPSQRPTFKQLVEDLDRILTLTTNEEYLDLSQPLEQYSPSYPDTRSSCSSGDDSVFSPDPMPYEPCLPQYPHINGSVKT

| Binder | Kd (IIIb) [nM] | Kd [1] [nM] | Kd (IIIc) [nM] |
| --- | --- | --- | --- |
| human chimeric anti-FGFR2 antibody cFR2-14 (antibody, V domains shown) VH: QVKLLQSGAELVKPGASVKLSCKTSGFTFSTSYMSWLKQVPGPSTEWIGWIYAGDGGTKYNQKFKGKATLTVDKFSSTAYMDLSSLTSEDAAVYFCATDGYGDWFTYWGQGTLVTVSS VL: DIQMTQSPASLSASLGETVTIECRASEDIYSNLAWYQQKPGNSPQLLIYDANILADGVPSRFSGSGSGTQYSLKINSLQSEDVASYFCQQYNNYPPFTFGAGTKLELKR | 63 | – | – |
| humanized anti-FGFR2 antibody hFR2-14_H7/L1 (antibody, V domains shown) VH: QVQLVQSGAEVKKPGASVKVSCKASGFTFSTSYMSWVRQAPGPSTEWMGWIYAGDGGTKYNQKFKGRVTLTVDKSTSTAYMELSSLRSEDTAVYYCATDEYGDWFTYWGQGTLVTVSS VL: DIQMTQSPSSLSASVGDRVTITCRASEDIYSNLAWYQQKPGKSPQLLIYDANILADGVPSRFSGSGSGTDYTLTISSLQPEDFATYYCQQYNNYPPFTFGQGTKVEIKR | – | 1.2 | – |
| humanized anti-FGFR2 antibody hFR2-14_H16/L1 (antibody, V domains shown) VH: QVQLVQSGAEVKKPGASVKVSCKASGFTFSTSYMSWVRQAPGPSTEWMGWIYAGDGGTKYNQKFKGRVTLTVDKSTSTAYMELSSLRSEDTAVYYCATDVYGDWFTYWGQGTLVTVSS VL: DIQMTQSPSSLSASVGDRVTITCRASEDIYSNLAWYQQKPGKSPQLLIYDANILADGVPSRFSGSGSGTDYTLTISSLQPEDFATYYCQQYNNYPPFTFGQGTKVEIKR | – | 0.91 | – |
| humanized anti-FGFR2 antibody hFR2-14_H2/L1 (antibody, V domains shown) VH: QVQLVQSGAEVKKPGASVKVSCKASGFTFSTSYMSWVRQAPGQGLEWMGWIYAGDGGTKYNQKFKGRVTLTADKSTSTAYMELSSLRSEDTAVYYCATDGYGDWFTYWGQGTLVTVSS VL: DIQMTQSPSSLSASVGDRVTITCRASEDIYSNLAWYQQKPGKSPQLLIYDANILADGVPSRFSGSGSGTDYTLTISSLQPEDFATYYCQQYNNYPPFTFGQGTKVEIKR | 8.7 | – | 6.4 |
| humanized anti-FGFR2 antibody hFR2-14_H17/L1 (antibody, V domains shown) VH: QVQLVQSGAEVKKPGASVKVSCKASGFTFSTSYMSWVRQAPGPSTEWMGWIYAGDGGTKYNQKFKGRVTLTVDKSTSTAYMELSSLRSEDTAVYYCATDWYGDWFTYWGQGTLVTVSS VL: DIQMTQSPSSLSASVGDRVTITCRASEDIYSNLAWYQQKPGKSPQLLIYDANILADGVPSRFSGSGSGTDYTLTISSLQPEDFATYYCQQYNNYPPFTFGQGTKVEIKR | – | 1.5 | – |
| humanized anti-FGFR2 antibody hFR2-14_H9/L1 (antibody, V domains shown) VH: QVQLVQSGAEVKKPGASVKVSCKASGFTFSTSYMSWVRQAPGPSTEWMGWIYAGDGGTKYNQKFKGRVTLTVDKSTSTAYMELSSLRSEDTAVYYCATDHYGDWFTYWGQGTLVTVSS VL: DIQMTQSPSSLSASVGDRVTITCRASEDIYSNLAWYQQKPGKSPQLLIYDANILADGVPSRFSGSGSGTDYTLTISSLQPEDFATYYCQQYNNYPPFTFGQGTKVEIKR | – | 0.51 | – |
| humanized anti-FGFR2 antibody hFR2-14_H5/L1 (antibody, V domains shown) VH: QVQLVQSGAEVKKPGASVKVSCKASGFTFSTSYMSWVRQAPGPSTEWMGWIYAGDGGTKYNQKFKGRVTLTVDKSTSTAYMELSSLRSEDTAVYYCATEGYGDWFTYWGQGTLVTVSS VL: DIQMTQSPSSLSASVGDRVTITCRASEDIYSNLAWYQQKPGKSPQLLIYDANILADGVPSRFSGSGSGTDYTLTISSLQPEDFATYYCQQYNNYPPFTFGQGTKVEIKR | – | 0.95 | – |
| humanized anti-FGFR2 antibody hFR2-14_H10/L1 (antibody, V domains shown) VH: QVQLVQSGAEVKKPGASVKVSCKASGFTFSTSYMSWVRQAPGPSTEWMGWIYAGDGGTKYNQKFKGRVTLTVDKSTSTAYMELSSLRSEDTAVYYCATDIYGDWFTYWGQGTLVTVSS VL: DIQMTQSPSSLSASVGDRVTITCRASEDIYSNLAWYQQKPGKSPQLLIYDANILADGVPSRFSGSGSGTDYTLTISSLQPEDFATYYCQQYNNYPPFTFGQGTKVEIKR | – | 0.69 | – |
| humanized anti-FGFR2 antibody hFR2-14_H6/L1 (antibody, V domains shown) VH: QVQLVQSGAEVKKPGASVKVSCKASGFTFSTSYMSWVRQAPGPSTEWMGWIYAGDGGTKYNQKFKGRVTLTVDKSTSTAYMELSSLRSEDTAVYYCATDAYGDWFTYWGQGTLVTVSS VL: DIQMTQSPSSLSASVGDRVTITCRASEDIYSNLAWYQQKPGKSPQLLIYDANILADGVPSRFSGSGSGTDYTLTISSLQPEDFATYYCQQYNNYPPFTFGQGTKVEIKR | – | 1.5 | – |
| humanized anti-FGFR2 antibody hFR2-14_H15/L1 (antibody, V domains shown) VH: QVQLVQSGAEVKKPGASVKVSCKASGFTFSTSYMSWVRQAPGPSTEWMGWIYAGDGGTKYNQKFKGRVTLTVDKSTSTAYMELSSLRSEDTAVYYCATDRYGDWFTYWGQGTLVTVSS VL: DIQMTQSPSSLSASVGDRVTITCRASEDIYSNLAWYQQKPGKSPQLLIYDANILADGVPSRFSGSGSGTDYTLTISSLQPEDFATYYCQQYNNYPPFTFGQGTKVEIKR | – | 3.4 | – |
| humanized anti-FGFR2 antibody hFR2-14_H4/L1 (antibody, V domains shown) VH: QVQLVQSGAEVKKPGASVKVSCKASGFTFSTSYMSWVRQAPGPSIEWMGWIYAGDGGTKYNQKFKGRVTLTVDKSTSTAYMELSSLRSEDTAVYYCATDGYGDWFAYWGQGTLVTVSS VL: DIQMTQSPSSLSASVGDRVTITCRASEDIYSNLAWYQQKPGKSPQLLIYDANILADGVPSRFSGSGSGTDYTLTISSLQPEDFATYYCQQYNNYPPFTFGQGTKVEIKR | 5.4 | – | 2.8 |
| humanized anti-FGFR2 antibody hFR2-14_H18/L1 (antibody, V domains shown) VH: QVQLVQSGAEVKKPGASVKVSCKASGFTFSTSYMSWVRQAPGPSTEWMGWIYAGDGGTKYNQKFKGRVTLTVDKSTSTAYMELSSLRSEDTAVYYCATDYYGDWFTYWGQGTLVTVSS VL: DIQMTQSPSSLSASVGDRVTITCRASEDIYSNLAWYQQKPGKSPQLLIYDANILADGVPSRFSGSGSGTDYTLTISSLQPEDFATYYCQQYNNYPPFTFGQGTKVEIKR | – | 1.2 | – |
| humanized anti-FGFR2 antibody hFR2-14_H11/L1 (antibody, V domains shown) VH: QVQLVQSGAEVKKPGASVKVSCKASGFTFSTSYMSWVRQAPGPSTEWMGWIYAGDGGTKYNQKFKGRVTLTVDKSTSTAYMELSSLRSEDTAVYYCATDKYGDWFTYWGQGTLVTVSS VL: DIQMTQSPSSLSASVGDRVTITCRASEDIYSNLAWYQQKPGKSPQLLIYDANILADGVPSRFSGSGSGTDYTLTISSLQPEDFATYYCQQYNNYPPFTFGQGTKVEIKR | – | 2.1 | – |
| humanized anti-FGFR2 antibody hFR2-14_H1/L1 (antibody, V domains shown) VH: QVQLVQSGAEVKKPGASVKVSCKASGFTFSTSYMSWVRQAPGQGLEWMGWIYAGDGGTKYNQKFKGRVTLTVDKSTSTAYMELSSLRSEDTAVYYCATDGYGDWFTYWGQGTLVTVSS VL: DIQMTQSPSSLSASVGDRVTITCRASEDIYSNLAWYQQKPGKSPQLLIYDANILADGVPSRFSGSGSGTDYTLTISSLQPEDFATYYCQQYNNYPPFTFGQGTKVEIKR | 12 | – | 3 |
| humanized anti-FGFR2 antibody hFR2-14_H13/L1 (antibody, V domains shown) VH: QVQLVQSGAEVKKPGASVKVSCKASGFTFSTSYMSWVRQAPGPSTEWMGWIYAGDGGTKYNQKFKGRVTLTVDKSTSTAYMELSSLRSEDTAVYYCATDMYGDWFTYWGQGTLVTVSS VL: DIQMTQSPSSLSASVGDRVTITCRASEDIYSNLAWYQQKPGKSPQLLIYDANILADGVPSRFSGSGSGTDYTLTISSLQPEDFATYYCQQYNNYPPFTFGQGTKVEIKR | – | 0.67 | – |
| humanized anti-FGFR2 antibody hFR2-14_H14/L1 (antibody, V domains shown) VH: QVQLVQSGAEVKKPGASVKVSCKASGFTFSTSYMSWVRQAPGPSTEWMGWIYAGDGGTKYNQKFKGRVTLTVDKSTSTAYMELSSLRSEDTAVYYCATDQYGDWFTYWGQGTLVTVSS VL: DIQMTQSPSSLSASVGDRVTITCRASEDIYSNLAWYQQKPGKSPQLLIYDANILADGVPSRFSGSGSGTDYTLTISSLQPEDFATYYCQQYNNYPPFTFGQGTKVEIKR | – | 2.3 | – |
